In article PMC10002728:

B1: human complement C1r, zymogen form (enzyme)
chain: SIPIPQKLFGEVTSPLFPKPYPNNFETTTVITVPTGYRVKLVFQQFDLEPSEGCFYDYVKISADKKSLGRFCGQLGSPLGNPPGKKEFMSQGNKMLLTFHTDFSNEENGTIMFYKGFLAYYQAVDLDECASRSKSGEEDPQPQCQHLCHNYVGGYFCSCRPGYELQEDTHSCQAECSSELYTEASGYISSLEYPRSYPPDLRCNYSIRVERGLTLHLKFLEPFDIDDHQQVHCPYDQLQIYANGKNIGEFCGKQRPPDLDTSSNAVDLLFFTDESGDSRGWKLRYTTEIIKCPQPKTLDEFTIIQNLQPQYQFRDYFIATCKQGYQLIEGNQVLHSFTAVCQDDGTWHRAMPRCKIKDCGQPRNLPNGDFRYTTTMGVNTYKARIQYYCHEPYYKMQTRAGSRESEQGVYTCTAQGIWKNEQKGEKIPRCLPVCGKPVNPVEQRQRIIGGQKAKMGNFPWQVFTNIHGRGGGALLGDRWILTAAHTLYPKEHEAQSNASLDVFLGHTNVEELMKLGNHPIRRVSVHPDYRQDESYNFEGDIALLELENSVTLGPNLLPICLPDNDTFYDLGLMGYVSGFGVMEEKIAHDLRFVRLPVANPQACENWLRGKNRMDVFSQNMFCAGHPSLKQDACQGDSGGVFAVRDPNTDRWVATGIVSWGIGCSRGYGFYTKVLNYVDWIKKEMEEED
B2: human complement C1r, activated form (enzyme)
chain: B1 chain

Key:
Experiment in all cases: SPR
[1] = target: B. hermsii strain HS1 FbpC C-terminal complement inhibitory domain, residues 212-374 (Borrelia hermsii strain HS1)
[2] = target: FbpC-C R248A (Borrelia hermsii strain HS1)
[3] = target: FbpC-C H252A (Borrelia hermsii strain HS1)

Binder | Kd [1] [nM] | koff [1] [s⁻¹] | kon [1] [M⁻¹ s⁻¹] | Kd [2] [nM] | koff [2] [s⁻¹] | kon [2] [M⁻¹ s⁻¹] | Kd [3] [nM] | koff [3] [s⁻¹] | kon [3] [M⁻¹ s⁻¹]
B1 | 1.2 | 5.4e-05 | 44000 | 13 | 0.00063 | 69000 | – | – | –
B2 | 0.3 | 1.4e-05 | 48000 | 0.19 | 9.4e-06 | 45000 | 2.4 | 0.00012 | 51000
